Data set [1] concerns the target T1, POU4F1-s (UniProt Q01851 85-419).
T1 sequence: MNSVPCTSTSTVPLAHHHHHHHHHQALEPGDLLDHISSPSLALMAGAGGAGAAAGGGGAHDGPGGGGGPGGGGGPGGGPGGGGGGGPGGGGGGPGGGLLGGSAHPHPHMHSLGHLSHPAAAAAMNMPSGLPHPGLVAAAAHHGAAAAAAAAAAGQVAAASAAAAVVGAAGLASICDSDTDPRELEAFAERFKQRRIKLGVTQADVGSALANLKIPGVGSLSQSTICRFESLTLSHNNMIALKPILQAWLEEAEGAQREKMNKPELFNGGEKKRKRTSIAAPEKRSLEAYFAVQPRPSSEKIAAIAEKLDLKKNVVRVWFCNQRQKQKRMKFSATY
Description: competition EMSA. The conditions noted are these: unlabeled, vs 32P-Probe 2; strongest competitor; 10 mM Tris-Cl pH 7.9, 100 mM KCl, 5 mM MgCl2, 1 mM EDTA, 1 mM DTT, 0.5 mM PMSF, 5% glycerol, 1 ug poly(dI-dC), on ice 30 min; 5% polyacrylamide gel. In general terms: A gel shift assay detects complexes by their altered migration in electrophoresis.

The target in the next data set is T2, POU4F2-l (UniProt Q12837 1-409).
T2 sequence: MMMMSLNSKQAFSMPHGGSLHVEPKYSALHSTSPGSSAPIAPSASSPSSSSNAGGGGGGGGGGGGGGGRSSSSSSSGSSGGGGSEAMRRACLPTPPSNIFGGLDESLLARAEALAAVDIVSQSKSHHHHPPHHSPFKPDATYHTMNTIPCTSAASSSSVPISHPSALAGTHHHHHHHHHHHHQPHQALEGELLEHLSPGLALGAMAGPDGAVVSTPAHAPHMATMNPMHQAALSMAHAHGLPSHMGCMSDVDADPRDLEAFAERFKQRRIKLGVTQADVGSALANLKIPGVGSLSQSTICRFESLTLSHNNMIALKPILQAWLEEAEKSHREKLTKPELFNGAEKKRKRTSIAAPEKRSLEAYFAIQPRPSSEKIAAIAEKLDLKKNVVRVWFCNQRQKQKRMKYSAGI
Kind of data set: EMSA; 10 mM Tris-Cl pH 7.9, 100 mM KCl, 5 mM MgCl2, 1 mM EDTA, 1 mM DTT, 0.5 mM PMSF, 5% glycerol, 1 ug poly(dI-dC), on ice 30 min; 5% polyacrylamide gel. The conditions noted are these: protein: ivt.

Another data set deals with T3, POU4F2-s (UniProt Q12837 98-409).
T3 sequence: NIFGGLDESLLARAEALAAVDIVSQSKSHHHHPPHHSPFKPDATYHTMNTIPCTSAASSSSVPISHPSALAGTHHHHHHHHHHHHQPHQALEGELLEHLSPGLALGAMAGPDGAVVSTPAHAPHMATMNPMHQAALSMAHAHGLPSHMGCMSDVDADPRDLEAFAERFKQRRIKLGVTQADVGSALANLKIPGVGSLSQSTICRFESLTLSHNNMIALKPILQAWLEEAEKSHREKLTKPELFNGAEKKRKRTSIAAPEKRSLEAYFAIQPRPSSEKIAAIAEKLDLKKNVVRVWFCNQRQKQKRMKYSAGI
The data set is described as above. The following applies: protein: ivt.

The target of a further data set is T4, POU4F1-l (UniProt Q01851 1-419).
T4 sequence: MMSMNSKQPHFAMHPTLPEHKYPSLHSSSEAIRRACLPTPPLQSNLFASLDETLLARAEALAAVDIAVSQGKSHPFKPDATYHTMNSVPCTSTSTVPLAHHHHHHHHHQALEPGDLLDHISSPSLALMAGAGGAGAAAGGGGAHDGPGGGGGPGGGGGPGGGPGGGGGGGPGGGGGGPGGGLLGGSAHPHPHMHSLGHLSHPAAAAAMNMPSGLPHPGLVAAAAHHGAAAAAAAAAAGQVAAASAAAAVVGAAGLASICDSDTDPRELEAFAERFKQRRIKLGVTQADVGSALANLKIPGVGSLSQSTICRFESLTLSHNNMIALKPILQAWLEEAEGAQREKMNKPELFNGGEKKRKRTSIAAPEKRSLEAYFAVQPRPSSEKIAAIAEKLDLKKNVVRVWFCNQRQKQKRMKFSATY
The description is as above. The following applies: protein: ivt.

A further data set addresses T5, POU4F3 (UniProt Q15319 1-338).
T5 sequence: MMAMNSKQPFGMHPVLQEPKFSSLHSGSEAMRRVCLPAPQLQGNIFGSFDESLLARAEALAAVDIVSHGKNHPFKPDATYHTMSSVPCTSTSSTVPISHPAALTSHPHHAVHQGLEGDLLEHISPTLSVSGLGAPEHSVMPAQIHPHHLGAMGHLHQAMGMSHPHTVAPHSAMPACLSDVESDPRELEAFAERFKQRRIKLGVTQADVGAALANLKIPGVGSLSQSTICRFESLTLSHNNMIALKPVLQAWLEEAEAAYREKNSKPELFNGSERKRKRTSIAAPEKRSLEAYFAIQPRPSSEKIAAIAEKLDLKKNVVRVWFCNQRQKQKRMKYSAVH
Described as above. The conditions noted are these: protein: ivt.

For data set [2], the target named is T1, POU4F1-s. The data set is described as above. The following applies: protein: ivt; label: 32P fill-in; overhangs filled in by Klenow.
[3] abbreviates: overhangs filled in by Klenow when labeled.
Setting [4] is: label: 32P fill-in, overhangs filled in by Klenow.

In the case of POU4F1 consensus site competitor, in the data set with POU4F1-s [1], the binding signal (relative binding strength) was found to be 1000.

B1: Probe 2m (dsDNA)
DNA 1: AGGGTTTTAAGGCCCTATTCAGTG
DNA 2: CACTGAATAGGGCCTTAAAACCCT
B1: the binding result with POU4F2-l (setting [3]), in the data set with POU4F2-s (setting [3]), with POU4F1-l (setting [3]) and with POU4F3 (setting [3]) was “no binding” in each case.

B2: Probe 6m (dsDNA)
DNA 1: AGAAATCCTTAGGCCTTGACTTTG
DNA 2: CAAAGTCAAGGCCTAAGGATTTCT
For B2, the binding result in the data set with POU4F2-l (setting [4]), with POU4F2-s (setting [4]), in the data set with POU4F1-s [2], in the data set with POU4F1-l (setting [4]) and in the data set with POU4F3 (setting [4]) was “no binding” in each case.

B3: Probe 2 (Site 2) (dsDNA)
DNA 1: AGGGTTTTAATTAACTATTCAGTG
DNA 2: CACTGAATAGTTAATTAAAACCCT
Consider B3, for which the binding result in the data set with POU4F2-l (setting [3]), with POU4F2-s (setting [3]) and with POU4F3 (setting [3]) was “binds” each time.

B4: Probe 1m (dsDNA)
DNA 1: AGCTCACGGCCTGAGTTAACAAAG
DNA 2: CTTTGTTAACTCAGGCCGTGAGCT
As to B4, the binding result with POU4F2-l (setting [4]), with POU4F2-s (setting [4]), with POU4F1-s [2], in the data set with POU4F1-l (setting [4]) and in the data set with POU4F3 (setting [4]) was “no binding” each time.

These data come from publication PMC3692409, “RIT2, a neuron-specific small guanosine triphosphatase, is expressed in retinal neuronal cells and its promoter is modulated by the POU4 transcription factors”.
